Key:
Cys = conditions: cited from earlier work
[1] = molecular target: HP0377 lacking its own signal sequence (residues 25-221 of native HP0377) with a C-terminal 6 His tag (Helicobacter pylori 26695); assay: SEC; Superdex75 HiLoad 16/600, 20 mM Tris pH 8, 150 mM NaCl, absorbance at 280 nm, calibrated with Bio-Rad Gel Filtration Standard; monomer and dimer peaks
[2] = molecular target: HP0377 lacking its own signal sequence (residues 25-221 of native HP0377) with a C-terminal 6 His tag (Helicobacter pylori 26695); assay: cross-linking; glutaraldehyde 0.001-0.1 % v/v, HP0377 2.5 mg/ml, room temperature, 20 min, 0.05 M bicine-NaOH pH 8.5, 0.1 mM DTT, 0.4 M NaCl, quenched with ethanolamine-HCl; SDS-PAGE; monomer to dimer
Cys89 = Cys89 (UniProt position 89, FGRNGCSYCER); assay: UV-vis; conditions: 25 °C; 200 mM NaCl; 10 mM Tris, 10 mM sodium citrate, 1 mM EDTA; Reduced protein referenced to oxidized protein; about 20 µM protein
Cys92 = Cys92 (UniProt position 92, NGCSYCERFKK); assay: UV-vis; conditions: 25 °C; 200 mM NaCl; 10 mM Tris, 10 mM sodium citrate, 1 mM EDTA; Reduced protein referenced to oxidized protein; about 20 µM protein

Substance	pKa (Cys)	further results
CcmG (DsbE) (Escherichia coli)	6.8	
ResA (Bacillus subtilis)	8.8	
DsbA (Escherichia coli)	3.5	
DsbC (Escherichia coli)	4.1 ± 0.3	
HP0377 lacking its own signal sequence (residues 25-221 of native HP0377) with a C-terminal 6 His tag (domain or fragment)		stoichiometry N [1]: 2; stoichiometry N [2]: 2
HP0377 (CcmG/DsbE/ResA-like thiol:disulfide oxidoreductase) (Helicobacter pylori 26695)		pKa (Cys89): 3.56 ± 0.11; pKa (Cys92): 9.23 ± 0.21
